Molecular target: MaMADS36 (Musa spp. (banana), UniProt A0ACE1XRG1 54-288)
Test: EMSA; Not given in material; EMSA according to Liu et al. [22]
Conditions: protein: recombinant; chain copies: 2

MaMADS36, sequence (A0ACE1XRG1 entry or part of it): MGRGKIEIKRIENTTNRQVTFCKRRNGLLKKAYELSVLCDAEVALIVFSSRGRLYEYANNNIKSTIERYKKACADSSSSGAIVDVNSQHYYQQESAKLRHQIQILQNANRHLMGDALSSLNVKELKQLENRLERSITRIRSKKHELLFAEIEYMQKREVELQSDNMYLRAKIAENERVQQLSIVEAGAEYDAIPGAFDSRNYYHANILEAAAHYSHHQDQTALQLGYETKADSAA

B1: MaACS7 promoter C(A/T)rG probe (dsDNA)
DNA 1: GTTTCTTTTTTGGT
DNA 2: ACCAAAAAAGAAAC
**Q.** Does B1 bind?
**A.** binds
